Here are results for four substances from patent publication US20190338035A1.

Experiment [1] deals with HLA-A*02:01 on T2 cells without peptide loading (human). Put plainly: flow cytometry on T2 cells, anti-M13 + PE anti-mouse IgG, no phage (background control).
Experiment [2] concerns the target WT H3.1 26-35 peptide/HLA-A*02:01 complex on T2 cells (human). Described as above.
The target of experiment [3] is WT H3.3 26-35 peptide/HLA-A*02:01 complex on T2 cells (human). Described as above.
Experiment [4] deals with control peptide mixture P20/HLA-A*02:01 complexes on T2 cells (human). The description is as above.
The target in experiment [5] is mutant histone K27M-H3.1 26-35 peptide/HLA-A*02:01 complex on T2 cells (human). Described as above.
Experiment [6] addresses mutant histone K27M-H3.3 26-35 peptide/HLA-A*02:01 complex on T2 cells (human). Described as above.
Experiment [7] concerns the target HLA-A*02:01 on T2 cells without peptide loading (human). Put plainly: flow cytometry on T2 cells, secondary antibody only, no phage (background control). A general note: A flow cytometer gives signals particle by particle.
Experiment [8] addresses WT H3.1 26-35 peptide/HLA-A*02:01 complex on T2 cells (human). The experiment is described as above.
Experiment [9] deals with WT H3.3 26-35 peptide/HLA-A*02:01 complex on T2 cells (human). The experiment is described as above.
For experiment [10], the target named is control peptide mixture P20/HLA-A*02:01 complexes on T2 cells (human). The description is as above.
Experiment [11] addresses mutant histone K27M-H3.1 26-35 peptide/HLA-A*02:01 complex on T2 cells (human). The experiment is described as above.
Experiment [12] has as its target mutant histone K27M-H3.3 26-35 peptide/HLA-A*02:01 complex on T2 cells (human). Described as above.
Experiment [13] addresses HLA-A*02:01 on T2 cells without peptide loading (human). Put plainly: flow cytometry, BB7.2 staining of T2 cells.
In experiment [14] the target is WT H3.1 26-35 peptide/HLA-A*02:01 complex on T2 cells (human). Put plainly: flow cytometry, BB7.2 staining of T2 cells.
Experiment [15] addresses WT H3.3 26-35 peptide/HLA-A*02:01 complex on T2 cells (human). Briefly: flow cytometry, BB7.2 staining of T2 cells.
Experiment [16] deals with control peptide mixture P20/HLA-A*02:01 complexes on T2 cells (human). Put plainly: flow cytometry, BB7.2 staining of T2 cells.
Experiment [17] has as its target mutant histone K27M-H3.1 26-35 peptide/HLA-A*02:01 complex on T2 cells (human). Briefly: flow cytometry, BB7.2 staining of T2 cells.
Experiment [18] deals with mutant histone K27M-H3.3 26-35 peptide/HLA-A*02:01 complex on T2 cells (human). Put plainly: flow cytometry, BB7.2 staining of T2 cells.
Experiment [19] deals with HLA-A*02:01 on T2 cells without peptide loading (human). Put plainly: flow cytometry, phage on T2 cells, anti-M13 + PE anti-mouse IgG.
Experiment [20] deals with WT H3.1 26-35 peptide/HLA-A*02:01 complex on T2 cells (human). The experiment is described as above.
Experiment [21] addresses WT H3.3 26-35 peptide/HLA-A*02:01 complex on T2 cells (human). The experiment is described as above.
Experiment [22] deals with control peptide mixture P20/HLA-A*02:01 complexes on T2 cells (human). Described as above.
Experiment [23] concerns the target mutant histone K27M-H3.1 26-35 peptide/HLA-A*02:01 complex on T2 cells (human). Described as above.
In experiment [24] the target is mutant histone K27M-H3.3 26-35 peptide/HLA-A*02:01 complex on T2 cells (human). The description is as above.

Turning to mouse anti-M13 mAb (antibody), the Median MFI (PE-A) was 80 MFI in experiment [1]; 86 MFI in [2]; 83 MFI in [3]; 82 MFI in experiment [4]; 85 MFI in [5]; 83 MFI in experiment [6].

As for “R-PE conjugated horse anti-mouse IgG (antibody)”, the Median MFI (PE-A) in experiment [7] was determined as 82 MFI; in experiment [8], 83 MFI; in [9], 83 MFI; in [10], 82 MFI; in experiment [11], 85 MFI; in experiment [12] it was 83 MFI.

As to BB7.2 (antibody), the Median MFI (PE-A) in experiment [13] came out at 3600 MFI; in experiment [14], 8700 MFI; in experiment [15] it was 8650 MFI; in [16] it was 11300 MFI; in experiment [17] it was 9530 MFI; in experiment [18] it was 9650 MFI.

Take negative control phage: the Median MFI (PE-A) was found to be 122 MFI in [19]; 131 MFI in experiment [20]; 128 MFI in experiment [21]; 124 MFI in [22]; 130 MFI in experiment [23]; 133 MFI in experiment [24].
